The values below come from article PMC3964918 (RNA, 2014).

Read-outs that look alike come from different tables or passages of the source.

What all share (test): far-Western, overlay or dot blot
Assay [1] deals with T1, SynPnp, recombinant Synechocystis PNPase (Synechocystis PCC6803, UniProt P72659 1-718).
T1 sequence (looked up): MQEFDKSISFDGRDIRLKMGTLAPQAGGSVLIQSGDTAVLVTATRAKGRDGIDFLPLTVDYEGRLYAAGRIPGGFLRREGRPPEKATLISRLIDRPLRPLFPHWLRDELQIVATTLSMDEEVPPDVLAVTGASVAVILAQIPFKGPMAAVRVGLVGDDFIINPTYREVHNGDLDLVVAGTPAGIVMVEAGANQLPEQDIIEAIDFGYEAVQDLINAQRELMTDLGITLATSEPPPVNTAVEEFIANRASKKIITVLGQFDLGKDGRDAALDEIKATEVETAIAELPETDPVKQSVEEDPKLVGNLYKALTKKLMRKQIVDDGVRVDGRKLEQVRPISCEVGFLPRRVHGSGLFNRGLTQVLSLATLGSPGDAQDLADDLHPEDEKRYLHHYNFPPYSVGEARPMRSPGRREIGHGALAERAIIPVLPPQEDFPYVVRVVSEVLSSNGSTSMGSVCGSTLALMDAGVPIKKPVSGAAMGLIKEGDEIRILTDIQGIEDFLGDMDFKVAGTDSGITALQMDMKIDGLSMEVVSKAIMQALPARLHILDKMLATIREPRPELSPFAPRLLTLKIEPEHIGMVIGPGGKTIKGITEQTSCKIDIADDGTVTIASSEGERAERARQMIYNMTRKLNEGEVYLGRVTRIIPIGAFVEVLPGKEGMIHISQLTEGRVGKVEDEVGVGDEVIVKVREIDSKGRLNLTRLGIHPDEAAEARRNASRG

In assay [2] the target is T2, AnaPnp, recombinant Anabaena PNPase (Anabaena PCC7120, UniProt Q8YP11 1-718).
T2 sequence (looked up): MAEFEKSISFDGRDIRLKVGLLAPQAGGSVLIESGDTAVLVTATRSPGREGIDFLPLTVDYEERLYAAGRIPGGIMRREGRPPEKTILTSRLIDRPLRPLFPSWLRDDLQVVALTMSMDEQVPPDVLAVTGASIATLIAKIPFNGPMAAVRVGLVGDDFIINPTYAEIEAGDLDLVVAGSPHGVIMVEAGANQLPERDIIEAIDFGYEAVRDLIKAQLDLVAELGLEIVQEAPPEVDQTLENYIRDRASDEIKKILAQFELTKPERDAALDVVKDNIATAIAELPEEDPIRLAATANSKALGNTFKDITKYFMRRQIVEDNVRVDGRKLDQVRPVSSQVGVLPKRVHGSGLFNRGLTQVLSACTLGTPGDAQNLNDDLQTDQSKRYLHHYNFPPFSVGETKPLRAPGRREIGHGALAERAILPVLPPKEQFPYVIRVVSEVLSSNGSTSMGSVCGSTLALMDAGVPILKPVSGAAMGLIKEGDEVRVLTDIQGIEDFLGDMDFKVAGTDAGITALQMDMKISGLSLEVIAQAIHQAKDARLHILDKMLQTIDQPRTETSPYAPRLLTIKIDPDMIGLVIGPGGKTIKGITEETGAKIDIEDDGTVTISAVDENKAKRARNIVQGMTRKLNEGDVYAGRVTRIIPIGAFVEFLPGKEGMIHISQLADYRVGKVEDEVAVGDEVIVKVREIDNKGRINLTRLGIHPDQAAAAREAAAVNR

Assay [3] addresses T1, SynPnp, recombinant Synechocystis PNPase. The source holds these as a separate data set.

Turning to RRRRRRSSA [synthetic nonapeptide of C4], in assay [1], the binding result is recorded as “binds”.
Consider STANRRRRRRSSASDSD [GFP-C4a (GFP fused at its C-terminus to C4 with four flanking residues at both ends)], for which the binding result in assay [2] is recorded as “binds”.
RRRRRRSSA [GFP-C4b (GFP fused at its C-terminus to the C4 nonapeptide)]: the binding result in assay [3] was “binds”.
